{"source": "patent US20250354133A1", "about": "“SIALIDASE FUSION MOLECULES AND RELATED USES” (The Scripps Research Institute, priority 2022, published 2025)", "key": {"[1]": {"system": "HER2 positive SK-BR-3 human breast cancer cells", "test": "BiTE-induced T cell cytotoxicity by LDH release, SK-BR-3 target cells", "type": "cell-based", "description": "To evaluate whether desialylation may enhance the susceptibility of tumor cells to BiTE-mediated cytotoxicity by T cells, we first constructed a BiTE molecule from a HER2-targeting scFv 4D5 and a human CD3-targeting scFv (4D5 BiTE). We then treated HER2 positive SK-BR-3 human breast cancer cells with a sialidase derived from Bifidobacterium longum subspecies infantis (B. infantis) to remove cell surface sialic acids. Following this procedure, treated cells were incubated with PBMCs from healthy human donors in the presence of 4D5 BiTE. Staining with FITC-Sambucus nigra agglutinin (SNA) that binds preferentially to sialic acid attached to terminal galactose in an a-2,6 linkage confirmed the success of cell surface desialylation. […] A similar trend was observed when 4D5 BiTE treatment was combined with a sialylation inhibitor, P-3Fax-Neu5Ac (FIG. 1, b). Next, we treated SK-BR-3 and MCF-7 breast cancer cells with 4D5 BiTE and hPBMCs in the presence or absence of B. infantis sialidase, respectively. […] The cytotoxicity enhancement is also observed with a different E: T ratio of 1:1 and the improvement of the BiTE-induced killing was sialidase dose-dependent.\n(§1) Cell cytotoxicity measurement by lactate dehydrogenase (LDH) release: T cell cytotoxicity induced by BiTEs and BiTE-sialidase fusion proteins was measured by lactate dehydrogenase (LDH) release using CytoTox 96® Non-Radioactive Cytotoxicity Assay (Promega, G1780). tumor cells and hPBMCs (tumor cell:hPBMC=1:5) per well in […] media were exposed to different treatments and incubated in 96 well plates at 37° C. (unless different ratio was specified elsewhere). After 24 hours of coincubation, […] of media supernatant from each well was transferred to a new flat bottom 96 well plate and LDH release was measured using the supplier's protocol."}, "T cells [2]": {"system": "T cells", "test": "T cell cytokine release (IFN-γ, IL-2, TNFα) by ELISA", "type": "cell-based, human", "settings": "MCF7 cells incubated with hPBMCs and BiTE", "description": "(§2) Cytokine release and T cell surface activation marker measurement: For T cell cytokine release measurement, as with the cytotoxicity experiment, tumor cells and hPBMCs (tumor cell:hPBMC=1:5) were co-incubated per well in 96 well plates with different treatments in […] media at 37° C. for 24 hours. Then, […] of supernatant from each well was diluted in […] DPBS and used for IFN-γ, IL-2 and TNFα measurement. The ELISA measurement was done by ELISA MAX™ Sets. IFN-γ, IL-2 and TNFα kits (BioLegend) and the experiments were done according to the manufacturer's protocol. The exact concentration was calculated from a standard curve. For the cell surface activation marker measurement, tumor cells and hPBMCs (tumor cell:hPBMC=1:5) were co-incubated per well in 12 well plates with different treatments in 1 mL media at 37° C. for 24 hours. […] Cells were then washed twice with FACS buffer (PBS with 2.5% BSA) before being analyzed using flow cytometry. Data analysis and mean fluorescence intensity calculation were done by Flowjo. For the transcriptome analysis, 1.2 million hPBMCs and 0.1 million MDA-MB-231 cells were incubated together under the treatment of either 4 nM 4D5 BiTE or 4 nM 4D5 BiTE-sialidase (Three replicas for each condition). […]"}, "[3]": {"system": "immune synapse between T cells and tumor cells", "test": "BiTE-induced immune synapse formation, confocal imaging of CD3 and actin", "type": "cell-based, human", "excerpt": "Formation of the BiTE-induced immunological synapse (IS) between target cells and T cells is the essential mode of action of BiTEs. We hypothesized that the removal of cell-surface sialosides may promote stronger BiTE-induced IS formation between target tumor cells and T cells and thus better tumor cell killing. Accumulation of the TCR-CD3 complex and F-actin at the synapse is a hallmark of a stable and functional cytolytic IS in T cells. To test whether desialylation can promote IS formation, we imaged the IS formed between T cells and sialidase-treated and non-treated SK-BR-3 cells by staining F-actin and CD3. The resulting immunofluorescence was imaged by confocal microscopy. […] To assess the stability of the IS formed, we calculated the relative CD3 fluorescence intensity at the IS and the relative area of the IS.\nStaining of human […] and actin for confocal imaging: Briefly, 0.4 million tumors cells were treated with 4 nM 4D5 BiTE or 4 nM 4D5 BiTE with 15 mg/ML sialidase in […] DMEM without the serum for 1 hr at 37° C. After the incubation, all the samples were washed twice using PBS before incubating with 0.4 million hPBMCs in 500 ml PBS for 30 min at 37° C. Then all the cells were transferred in 1 ml PBS to the coverslips in 12 well plates and incubated at 37° C. for 30 min to let cells attach to the coverslip. 1 ml 4% PFA was added to each well and incubated with shaking for 20 min at room temperature (RT) for cell fixing, and then each well was washed twice with ice cold PBS. […] PBST was used for washing for three times before anti-rabbit 488 (Invitrogen, 35553) and anti-mouse 594 ((Invitrogen, A-11005) secondary antibody was diluted and used for staining at RT for 30 min with shaking. Finally, samples were washed three times and each coverslip was transferred to a glass slide with mounting oil. Fingernail oil was used to seal the coverslip. Samples were analyzed on a Zeiss LSM880 with a 63× oil lens (NA 1.4). The relative mean fluorescent intensity (MFI) of […] accumulation and relative contact area of IS was calculated by imageJ."}, "T cells [4]": {"system": "T cells", "test": "T cell surface activation markers (CD25, CD69, CD107a) by flow cytometry", "type": "cell-based, human", "settings": "with 4D5 BiTEs", "description": "as §2"}, "[5]": {"system": "MCF-7 breast cancer cells", "test": "BiTE-induced T cell cytotoxicity, MCF-7 target cells", "type": "cell-based, human", "description": "(§3) To evaluate whether desialylation may enhance the susceptibility of tumor cells to BiTE-mediated cytotoxicity by T cells, we first constructed a BiTE molecule from a HER2-targeting scFv 4D5 and a human CD3-targeting scFv (4D5 BiTE). We then treated HER2 positive SK-BR-3 human breast cancer cells with a sialidase derived from Bifidobacterium longum subspecies infantis (B. infantis) to remove cell surface sialic acids. Following this procedure, treated cells were incubated with PBMCs from healthy human donors in the presence of 4D5 BiTE. Staining with FITC-Sambucus nigra agglutinin (SNA) that binds preferentially to sialic acid attached to terminal galactose in an a-2,6 linkage confirmed the success of cell surface desialylation. […]\nas §1, with “(unless different ratio was specified elsewhere).” left out"}, "PSMA-positive PC3 cells": {"system": "PSMA-positive PC3 cells", "test": "PSMA BiTE-induced T cell cytotoxicity, PC3 target cells", "type": "cell-based, human", "settings": "sialidase and PSMA BiTEs added at the same time", "description": "as §3\nas §1, with “(unless different ratio was specified elsewhere).” left out"}, "[6]": {"system": "CD19+ (Daudi) and EGFR+ (A549) cells", "test": "BiKE-sialidase desialylation selectivity in co-culture", "type": "cell-based, human", "settings": "10 nM, 1h, serum-free medium, SNA or MALII staining", "description": "We compared the desialylation activity and selectivity of BiKE-CD19-Sia and BIKE-EGFR-Sia in a co-culture assay comprising CD19+ (Daudi) and EGFR+ (A549) cells, respectively. 1:1 ratio of daudi cells and A549 cells were treated with PBS, 10 nM BiKE-CD19-Sia or 10 nM BiKE-EGFR-Sia for 1h in serum-free medium, followed by staining with SNA-biotin (targets α2,6-linker sialoglycans) or MALII-biotin (targets α2,3-linker sialoglycans) in HBSS buffer for 30 min. Next, the cell mixtures were stained by streptavidin-APC and EGFR-Pc5.5."}, "[7]": {"settings": "sialidase-treated vs untreated SK-BR-3 cells, 4D5 BiTE"}, "[8]": {"settings": "vs 4D5 BiTEs+hPBMCs and sialidase+hPBMCs controls"}}}
{"molecule": "recombinant human CTLA-4: a high affinity ligand of CD80 [reference compound]", "values": [{"measurement": "desialylation-enhanced cytolysis with added CTLA-4", "setting": "[1]; high concentrations of CTLA-4 added with sialidase and 4D5 BiTE", "result": "no change in the enhanced cytolysis"}]}
{"molecule": "B. infantis sialidase: sialidase derived from Bifidobacterium longum subspecies infantis, SEQ ID NO: 5 (protein, listed as Bifidobacterium longum) MTENGMMNTNNTVCGANHDGAMSLAAPGDYGVACYRIPALAEAPNGWILAAFDARPHNCQDAPQANSIVQRISKDGGRSFEPQHVVAAGHDGVDKYGYSDPSYVVDRQTGEVFLFFVKSYDAGFGTSQAGVDPSAREVLQAAVTSSIDNGVTWSEPRIITADITNSESWISRFASSGAGIQLTYGEHAGRLIQQYTIKELDGRYRAVSVFSDDHGATWHAGTPVGDHMDENKVVELSDGRVMLNSRSSDGNGCRYVAISRDGGATYGPVIRETQLPDPENNAQIARAFPDAPEGSAQAKVLLYSSSSPSDRIDGLVRVSIDDGKTWSAGRRFTTGPMAYSVIAALSHKAGGGYGLLYEGDNNNIMYTRISLDWLNGQLNVDGIGGFPLSGEGGC", "values": [{"measurement": "IFN-γ secretion on addition of sialidase", "setting": "T cells [2]", "result": "significantly enhanced"}, {"measurement": "BiTE-induced immune synapse formation", "setting": "[3]; SKOV-3 cells and T cells, with sialidase treatment", "result": "better IS formed"}, {"measurement": "CD3 accumulation at the immune synapse", "setting": "[3]; [7]", "result": "significantly stronger CD3 accumulation"}, {"measurement": "relative immune synapse area", "setting": "[3]; [7]", "result": "larger IS area"}, {"measurement": "T cell activation (CD25 and CD69 expression) on addition of sialidase", "setting": "T cells [4]", "result": "significantly enhanced"}, {"measurement": "4D5 BiTE-induced tumor cell killing by T cells after sialidase treatment", "setting": "[1]; tumor cells pre-treated with sialidase, hPBMCs, effector:target 5:1, vs 4D5 BiTEs alone", "result": "significantly potentiated the 4D5 BiTE-induced tumor cell killing"}, {"measurement": "killing with 4D5 BiTE and hPBMCs in presence of sialidase", "setting": "[1]; [8]", "result": "stronger killing"}, {"measurement": "BiTE-mediated target cell killing with sialidase treatment", "setting": "[5]; purified T cells as effectors", "result": "better BiTE-mediated target cell killing"}, {"measurement": "killing with 4D5 BiTE and hPBMCs in presence of sialidase", "setting": "[5]; [8]", "result": "stronger killing"}, {"measurement": "PSMA BiTE-induced cytotoxicity with sialidase", "setting": "PSMA-positive PC3 cells", "result": "stronger cytotoxicity enhancement"}]}
{"molecule": "BIKE-EGFR-Sia: anti-EGFR BiKE-sialidase fusion, TAL4S format, SEQ ID NO: 28 (protein) QVQLQESGPGLVKPSETLSLTCTVSGGSVSSGSYYWSWIRQPPGKGLEWIGYIYYSGSTNYNPSLKSRVTISVDTSKNQFSLKLSSVTAADTAVYYCARNPISIPAFDIWGQGTMVTVSSGGGGSGGGGSGGGGSQPVLTQPPSVSVAPGKTARITCGGNNIGSKSVHWYQQKPGQAPVLVIYYDSDRPSGIPERFSGSNSGNTATLTISRVEAGDEADYYCQVWDTSSDHVLFGGGTKLTVLGGGGSQVQLVQSGAEVKKPGESLKVSCKASGYTFTSYYMHWVRQAPGQGLEWMGIINPSGGSTSYAQKFQGRVTMTRDTSTSTVYMELSSLRSEDTAVYYCARGSAYYYDFADYWGQGTLVTVSSGGGGSGGGGSGGGGSSYVLTQPSSVSVAPGQTATISCGGHNIGSKNVHWYQQRPGQSPVLVIYQDNKRPSGIPERFSGSNSGNTATLTISGTQAMDEADYYCQVWDNYSVLFGGGTKLTVLGGGGSGGGGSGGGGSGGGGSMTENGMMNTNNTVCGANHDGAMSLAAPGDYGVACYRIPALAEAPNGWILAAFDARPHNCQDAPQANSIVQRISKDGGRSFEPQHVVAAGHDGVDKYGYSDPSYVVDRQTGEVFLFFVKSYDAGFGTSQAGVDPSAREVLQAAVTSSIDNGVTWSEPRIITADITNSESWISRFASSGAGIQLTYGEHAGRLIQQYTIKELDGRYRAVSVFSDDHGATWHAGTPVGDHMDENKVVELSDGRVMLNSRSSDGNGCRYVAISRDGGATYGPVIRETQLPDPENNAQIARAFPDAPEGSAQAKVLLYSSSSPSDRIDGLVRVSIDDGKTWSAGRRFTTGPMAYSVIAALSHKAGGGYGLLYEGDNNNIMYTRISLDWLNGQLNVDGIGGFPLSGEGGC", "values": [{"measurement": "selective desialylation activity", "setting": "[6]", "result": "selective desilylation activity"}]}
